In patent US20230250135A1:

Target: trimeric stem polypeptides with H7 like residues at the beta2/beta3 loop, A-helix and lower part of the stem (FIG. 13A)
Test: Binding-AlphaLISA, Expi293F supernatant, normalized to UFV172561

Chain of CR9114 (antibody) (VH): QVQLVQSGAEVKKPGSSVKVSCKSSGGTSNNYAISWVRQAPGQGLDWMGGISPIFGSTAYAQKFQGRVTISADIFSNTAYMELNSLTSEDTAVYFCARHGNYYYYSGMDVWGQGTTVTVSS
Chain of CR9114 (antibody) (VL): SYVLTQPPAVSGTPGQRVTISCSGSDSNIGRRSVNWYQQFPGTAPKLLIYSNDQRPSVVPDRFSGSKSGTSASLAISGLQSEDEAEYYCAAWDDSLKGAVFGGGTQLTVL

With CR9114 (antibody) the variation in antibody binding relative to reference UFV172561 was 20%.
